Measured values reported in the supplement of paper PMC12783771.
± gives the standard deviation of the averaged measurements.

B1: library; a variant is named by its letters at X, in order (parent)
chain: MNIQIGELAKRTACPVVTIRFYEQEGLLPPPGRSRGNFRLYGEEHVERLQFIRHCRSLDMPLSDVRTLLSYRKRPDQDCGEVXMLLDEHIRQVESRIGALLELKHHLVELREACSGARPAQSCGILQXLSXCVCXTRGTTAHXSD

Experiments:
[1] = variants of: B1; assay: sfGFP reporter fluorescence (15 h) (µM FITC); higher = higher leak; conditions: library round: Round 2; ligand: none
Method: (§1)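 Cell-free biosensing: 1 µL Echo-assembled CFE reactions with linear PbrR variant templates (5 nM) and pPbrR-sfGFP reporter, with 1 µM Pb, 30 µM Zn or no ligand; endpoint sfGFP fluorescence after 15 h at 30 °C calibrated as µM FITC. Round 2 ML-predicted PbrR mutants; up to 3 biological replicates.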

[2] = variants of: B1; assay: sfGFP reporter fluorescence (15 h) (µM FITC); higher = stronger transcriptional activation; conditions: library round: Round 2
Method: as §1

Row | Variant | sfGFP reporter fluorescence [1] | sfGFP reporter fluorescence ([2]; ligand: 1 µM Pb) | sfGFP reporter fluorescence ([2]; ligand: 30 µM Zn)
1 | NGSRP L126I | 0.0416 ± 0.0022 | 0.0457 ± 0.0021 | 0.333 ± 0.0046
2 | TGDDY I125L | 0.0486 ± 0.0014 | 0.0429 ± 0.0049 | 0.0494 ± 0.0015
3 | NGDAP P61N V108E | 0.0745 ± 0.0048 | 0.129 ± 0.01 | 1.48 ± 0.14
4 | NGADW L126I | 0.0633 ± 0.0051 | 0.0592 ± 0.0043 | 0.317 ± 0.024
5 | NGDAP S130A T136A | 0.0512 ± 0.001 | 0.0834 ± 0.0067 | 1.11 ± 0.13
6 | NGDDP P61N D64T E112V | 0.117 ± 0.013 | 0.294 ± 0.026 | 2.13 ± 0.17
7 | NGCAY | 0.0505 ± 0.0017 | 0.0635 ± 0.0058 | 0.277 ± 0.0034
8 | NGCAL | 0.0515 ± 0.0016 | 0.0668 ± 0.0024 | 0.255 ± 0.022
9 | TGDDP R96A E109A | 0.0459 ± 0.0014 | 0.0588 ± 0.00089 | 0.144 ± 0.02
10 | NGDDP M60L D64K E81A | 1.03 ± 0.075 | 2.19 ± 0.059 | 3.74 ± 0.22
11 | NGDDP P61N D64K V108M | 0.154 ± 0.014 | 0.461 ± 0.026 | 2.33 ± 0.24
12 | TGDPR E109L | 0.063 ± 0.0052 | 0.114 ± 0.0072 | 0.346 ± 0.039
13 | NGDDP P61N L107C C134I | 2.22 ± 0.18 | 2.54 ± 0.38 | 3.82 ± 0.36
14 | TGDDP R96A K104V L107I | 0.0526 ± 0.0017 | 0.0483 ± 0.0032 | 0.0559 ± 0.002
15 | NGDDP P61N D64K K104M L107C | 0.791 ± 0.061 | 1.74 ± 0.2 | 2.52 ± 0.35
16 | TGDRP V108L | 0.0448 ± 0.0017 | 0.0788 ± 0.0022 | 0.327 ± 0.012
17 | NGAAF E112D | 0.0594 ± 0.0017 | 0.0886 ± 0.0049 | 0.82 ± 0.062
18 | TGDDT R111V | 0.048 ± 0.00067 | 0.0656 ± 0.0064 | 0.282 ± 0.033
19 | TGDDT R111I | 0.0459 ± 0.00085 | 0.0556 ± 0.0012 | 0.201 ± 0.0085
20 | TGDDP D64E V108N | 0.0416 ± 0.00051 | 0.0357 ± 0.0033 | 0.0616 ± 0.0048
21 | MGAAP | 0.0477 ± 0.0018 | 0.0933 ± 0.0042 | 0.0535 ± 0.0035
22 | SGDDP I90L V108N | 0.0447 ± 0.0012 | 0.04614 ± 0.00039 | 0.0897 ± 0.013

Row | Variant | sfGFP reporter fluorescence [1] | sfGFP reporter fluorescence ([2]; ligand: 1 µM Pb) | sfGFP reporter fluorescence ([2]; ligand: 30 µM Zn)
23 | NGAKP L107V | 0.173 ± 0.011 | 0.513 ± 0.055 | 3.38 ± 0.24
24 | NGDDP P61E L62I D64K | 0.125 ± 0.015 | 0.249 ± 0.094 | 1.34 ± 0.17
25 | TGAYC | 0.05432 ± 0.00051 | 0.085 ± 0.0051 | 0.699 ± 0.064
26 | NGDDP M60L P61N D64N | 0.291 ± 0.025 | 0.582 ± 0.11 | 2.53 ± 0.24
27 | NGDAT L85I | 0.0427 ± 0.0024 | 0.0595 ± 0.0027 | 0.809 ± 0.019
28 | NADPP V108L L129M | 0.0617 ± 0.0065 | 0.0681 ± 0.0059 | 0.734 ± 0.067
29 | NGDRP P61N D64A | 0.111 ± 0.007 | 0.221 ± 0.0096 | 1.54 ± 0.25
30 | NGCDP D64K E112H | 0.108 ± 0.012 | 0.402 ± 0.043 | 1.44 ± 0.16
31 | TGAPL | 0.0604 ± 0.0053 | 0.109 ± 0.013 | 0.301 ± 0.034
32 | TGAPW | 0.0521 ± 0.00089 | 0.146 ± 0.014 | 0.264 ± 0.014
33 | NGDDP D64K K104V R111A | 0.0829 ± 0.0096 | 0.354 ± 0.017 | 2.2 ± 0.44
34 | SGSPP | 0.0484 ± 0.0013 | 0.123 ± 0.0072 | 0.394 ± 0.023
35 | TGAAP | 0.0444 ± 0.0012 | 0.0747 ± 0.0046 | 0.359 ± 0.0081
36 | NGDDR T136A T140A | 0.0505 ± 0.0017 | 0.0665 ± 0.0039 | 0.801 ± 0.079
37 | TGCAT | 0.0488 ± 0.002 | 0.0664 ± 0.0029 | 0.09 ± 0.0056
38 | TGCAP | 0.0461 ± 0.0022 | 0.0657 ± 0.0026 | 0.0869 ± 0.005
39 | TGDDW L126I | 0.0487 ± 0.0018 | 0.04581 ± 0.00039 | 0.0773 ± 0.00089
40 | TGSDP H142A | 0.0642 ± 0.0043 | 0.081 ± 0.0053 | 0.451 ± 0.086
41 | TGNRA | 0.0608 ± 0.0044 | 0.107 ± 0.018 | 0.663 ± 0.059
42 | MGSDA | 0.0442 ± 0.0017 | 0.0841 ± 0.0012 | 0.0513 ± 0.00078
43 | TGHAP | 0.0614 ± 0.0048 | 0.0828 ± 0.0035 | 0.394 ± 0.061
44 | NGAAP L107C | 1.86 ± 0.29 | 2.29 ± 0.21 | 3.05 ± 0.55
